Molecular target: CD80-Ig (extracellular domain of CD80 fused with the constant region of mouse IgG1 heavy chain) (mouse)
Experiment: SPR, CD28-Ig (187 nM to 12 µM) over CD80-Ig captured by anti-mouse IgG1 Fc

**Q.** With CD28-Ig (Fc fusion) as the substance, how does the koff read?
**A.** The koff was 0.563 s⁻¹.

**Q.** What about the kon of the same substance?
**A.** Its kon is 138000 M⁻¹ s⁻¹.
